# Data: US20140072563A1 (Regeneron, published 2014)
# Where a chain is given by its changes, count along the chain named.
# B1: H2M1938N (antibody, mouse IgG2, V domains shown)
# VH: EVQLVESGGGVVRPGGSLRLSCAASGFTFDDYGMSWVRQVPGKGLEWVSGLNWNGGITGYTDSVKGRFTISRDNAKNSLYLQMNSLRAEDTAFYHCARDSGDQDAFDIWGQGTMVTVSS
# VL: QIVMTQSPATLSVSPGERATLSCRASQSITPYLAWYQQKPGQTPRLLIYGVSTRATGIPARFSGSGSGTEFTLTISSLQSEDFAVYYCQQYDNWYTFGQGTKLEIK
# B2: H2M1936N (antibody, mouse IgG2, V domains shown)
# VH: EMQLVESGGGLVQPDRSLRLSCAASGFNFDNYAIHWVRQAPGKGLEWVSGISWNSGNIGYADSVKGRFTISRDNAKNSLFLLMNSLRPDDSALYYCTRGYNWNALSPMDVWGQGTTVTVSS
# VL: DIQMTQSPSSLSASVGDRVTVTCRASQGISNYLAWYQQKPGKVPKLLIYAASTLQSGVPSRFSGSGSGTDFTLTISSLQPEDVASYYCQNYNSAPMTFGQGTKVEIK
# B3: H2M1930N (antibody, mouse IgG2, V domains shown)
# VH: EVQLVESGGGLVKPGGSLRLSCVASGFTFSSYNMNWVRQAPGKGLEWVSFISGSSNYIHYADSVKGRFTISRDNAKNALYLQMNSLRAEDTAVYYCARDDGDYDWFDPWGQGTLVTVSS
# VL: EIVLTQSPGTLSLSPGERATLSCRASQSVSSSYLAWYQQKPGQAPRLLIYGTSSRATGIPDRFSGSGSGTDFTLTISRLEPEDFAVYYCQQYDNSYTFGQGTKLEIK
# B4: H2M1934N (antibody, mouse IgG2, V domains shown)
# VH: EVQLVQSGGGLVKPGGSLRLSCAASGFTFSNFNMNWVRQAPGKGLEWVSFISSLSTYTYYADSVKGRFTISRDNAKNSLYLQMNSLRAEDTAVYYCARDDGDHDWFDPWGQGTLVTVSS
# VL: B3 VL with G9D, S32N, G51S, T52A, S54N, N94S
# B5: H2M1937N (antibody, mouse IgG2, V domains shown)
# VH: QVQLQQWDAGLLKPSETLSLTCAVYGGSFSSYYWSWIRQPPGKGLEWIGEINHRGSTNYNPSLKSRVTISVDTSKNQFSLKLRSVTAADTAVYYCARGGVAARPDWHFFDYWGQGTLVTVSS
# VL: DIQMTQSPSSLSASVGDRVTITCRASQVIRNDLGWFQQRPGKAPKRLIYAASSLQSEVPSRFSGSGSGTEFTLTITSLQPEDFATYYCLQHNSYPLTFGQGTRLEIK
# B6: H1M1940N (antibody, V domains shown)
# VH: QVQVVESGGGVVQPGRSLRLSCAASGFTFSDYGMHWVRQAPGKGLEWVAIISYDGSNKYYADSVKGRFTVSRDNSKNTLYLQLDSLRPEDAAVFYCAREGAFNLDYYAMDVWGQGTTVTVSS
# VL: AIQMTQSPSSLSASVGDRVTITCRASQDIRNDLGWYQQKPGKAPNLLIYAASSLQSGVPSRFSGSGSGTDFTLTISSLQPEDFATYYCLQDSNYPLTFGGGTKVEIK
# Biological target: ErbB3 (cell surface, on MCF-7, DU145, A431 and MCF7 cells) (human, UniProt P21860 20-1342)
# Experiment: cell-based or functional assay
# Chain of ErbB3 (cell surface, on MCF-7, DU145, A431 and MCF7 cells) (P21860 20-1342): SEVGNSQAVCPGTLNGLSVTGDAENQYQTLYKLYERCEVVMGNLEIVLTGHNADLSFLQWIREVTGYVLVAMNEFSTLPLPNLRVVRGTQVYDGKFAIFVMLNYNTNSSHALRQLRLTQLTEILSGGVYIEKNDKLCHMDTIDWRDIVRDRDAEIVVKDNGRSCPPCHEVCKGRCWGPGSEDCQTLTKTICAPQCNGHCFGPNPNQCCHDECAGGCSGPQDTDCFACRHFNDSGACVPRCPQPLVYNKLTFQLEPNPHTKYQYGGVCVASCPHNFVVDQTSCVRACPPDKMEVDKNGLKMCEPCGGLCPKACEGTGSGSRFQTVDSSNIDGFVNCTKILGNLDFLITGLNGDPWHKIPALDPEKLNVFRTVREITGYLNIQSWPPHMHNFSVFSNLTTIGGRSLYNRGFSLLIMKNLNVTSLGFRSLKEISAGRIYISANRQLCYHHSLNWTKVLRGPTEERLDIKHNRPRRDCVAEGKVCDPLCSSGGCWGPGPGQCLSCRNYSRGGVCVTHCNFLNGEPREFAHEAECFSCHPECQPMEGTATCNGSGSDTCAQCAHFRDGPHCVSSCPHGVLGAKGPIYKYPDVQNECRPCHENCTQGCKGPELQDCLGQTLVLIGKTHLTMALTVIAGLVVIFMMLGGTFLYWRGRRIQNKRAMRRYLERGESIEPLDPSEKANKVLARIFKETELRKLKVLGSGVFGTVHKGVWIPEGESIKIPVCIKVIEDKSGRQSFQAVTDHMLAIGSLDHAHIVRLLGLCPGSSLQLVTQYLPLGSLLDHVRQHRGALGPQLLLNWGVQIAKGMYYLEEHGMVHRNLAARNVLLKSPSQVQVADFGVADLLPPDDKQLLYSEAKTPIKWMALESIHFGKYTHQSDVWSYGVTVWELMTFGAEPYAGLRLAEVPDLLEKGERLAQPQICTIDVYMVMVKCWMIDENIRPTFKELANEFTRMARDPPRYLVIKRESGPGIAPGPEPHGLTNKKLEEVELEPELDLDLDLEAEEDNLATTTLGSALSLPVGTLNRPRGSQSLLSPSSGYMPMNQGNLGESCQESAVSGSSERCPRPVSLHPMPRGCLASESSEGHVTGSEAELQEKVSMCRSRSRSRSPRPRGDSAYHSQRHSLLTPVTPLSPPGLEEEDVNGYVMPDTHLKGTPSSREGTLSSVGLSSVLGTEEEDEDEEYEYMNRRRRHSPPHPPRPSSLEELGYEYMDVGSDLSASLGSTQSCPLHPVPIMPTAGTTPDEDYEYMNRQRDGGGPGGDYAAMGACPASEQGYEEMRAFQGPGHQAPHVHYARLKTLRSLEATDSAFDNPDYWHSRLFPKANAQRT
Binder,"Percent inhibition of Akt phosphorylation, 0.01 µg/ml ErbB3 antibody, DU145 cells + 0.5 nM NRG1 [%]","Percent inhibition of Akt phosphorylation, 0.1 µg/ml ErbB3 antibody, DU145 cells + 0.5 nM NRG1 [%]","Percent inhibition of Akt phosphorylation, 0.5 µg/ml ErbB3 antibody, DU145 cells + 0.5 nM NRG1 [%]"
B1,40,63,74
B2,6,30,67
B3,39,64,66
B4,20,56,67
B5,-13,41,71
B6,13,50,68
